# Experimental data taken from US12643935B2, “PD-L1 binding peptides” (UNIVERSITY OF SOUTHERN CALIFORNIA, priority 2020, dated 2026).
# Where no end group is shown, it is not given here. [ ]: non-standard residue; d: D form. Pra = C#CC[C@H](N)C(=O)O
# What was measured:
# Assay type in all cases: cell-based
# [1] = biological target: T1, hPD-L1 expressed on the surface of Chinese hamster ovary (CHO) cells (CHO-hPD-L1) (Homo sapiens, UniProt Q9NZQ7); assay: Antibody titration by flow cytometry on CHO-hPD-L1 cells; conditions: 4° C., read-out: KD of Fluorescein-labeled antibody on CHO-hPD-L1
# T1 construct: expressed in transfected cells; host or cells: CHO
# Text: (§1) To do this, we measured SPAM peptide inhibition of anti-PD-L1 antibody binding to hPD-L1 expressed on the surface of Chinese hamster ovary (CHO) cells (CHO-hPD-L1). […] Cells were washed again and analyzed by flow cytometry (FIG. 5B-C).
# [2] = biological target: T2, CHO-mPD-L1 cells which express mPD-L1 (Mus musculus, UniProt Q9EP73); assay: Antibody competition by flow cytometry on CHO-mPD-L1 cells; conditions: pre-treatment 0-20 μM, 50 nM antibody
# T2 construct: expressed in transfected cells; host or cells: CHO
# Protocol: We performed similar experiments with CHO-mPD-L1 cells which express mPD-L1 to determine if this effect was specific to hPD-L1 expression. We have developed two cross-reactive anti-hPD-L1/mPD-L1 antibodies, 16373 and 16377. These antibodies were labeled with Fluorescein, titrated against CHO-hPD-L1 and CHO-mPD-L1 cells (FIG. 12B-C) and subjected to competition experiments as described above.
# The cells were washed once with cold serum free DMEM and incubated with 1 nM FAM-Atezolizumab, 10 nM FAM-Avelumab, 50 nM FAM-16373, or 50 nM FAM-16377 in serum free DMEM at 4° C. for 30 min. Cells were then washed three times with cold serum free DMEM. Cells were subsequently processed by flow cytometry with a BD FACSCalibur system using the FL1 channel. FlowJo v10.1 was used to gate to the major population and median FL1 fluorescence reported.
# [3] = biological target: T1, hPD-L1 expressed on the surface of Chinese hamster ovary (CHO) cells (CHO-hPD-L1); assay: Antibody competition by flow cytometry on CHO-hPD-L1 cells; conditions: pre-incubation 30 min 4° C., 0-20 μM; SPAM effect at 20 μM; 1 nM Atezolizumab, 10 nM Avelumab
# Text: as §1
# Cells were then washed three times with cold serum free DMEM. Cells were subsequently processed by flow cytometry with a BD FACSCalibur system using the FL1 channel. FlowJo v10.1 was used to gate to the major population and median FL1 fluorescence reported.
# T1 sequence (Q9NZQ7 19-290): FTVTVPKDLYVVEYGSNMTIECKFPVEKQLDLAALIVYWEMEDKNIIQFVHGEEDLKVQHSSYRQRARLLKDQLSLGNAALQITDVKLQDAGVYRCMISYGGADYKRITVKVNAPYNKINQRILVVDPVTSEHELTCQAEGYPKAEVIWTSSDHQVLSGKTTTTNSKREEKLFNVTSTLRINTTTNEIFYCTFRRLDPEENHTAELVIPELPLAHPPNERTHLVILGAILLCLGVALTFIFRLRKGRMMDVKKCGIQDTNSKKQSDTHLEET
# T2 sequence (Q9EP73 19-290): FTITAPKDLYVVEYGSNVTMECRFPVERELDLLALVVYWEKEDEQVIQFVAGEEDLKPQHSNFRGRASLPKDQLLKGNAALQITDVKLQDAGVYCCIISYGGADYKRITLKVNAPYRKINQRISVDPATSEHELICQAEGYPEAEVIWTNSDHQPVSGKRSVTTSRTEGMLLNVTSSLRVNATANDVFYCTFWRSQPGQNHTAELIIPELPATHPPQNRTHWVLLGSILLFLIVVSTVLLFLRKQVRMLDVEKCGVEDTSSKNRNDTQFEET
substance,measurement,setting,value
Atezolizumab: hPD-L1 specific monoclonal antibody,Kd,[1],0.2 nM
Cyclo[(AcTyr)(NMeAla)NPHL(Hyp)WS(Trp(Me))(NMeNle) (NMeNle)(Orn)C]-Gly-NH2 (XXNPHLXWSXXXXCG; N-methyl; non-natural residues; cyclised or stapled) [WL-12],blocking of Fluorescein-16373 and Fluorescein-16377 in CHO-mPD-L1 cells,[2],blocking was absent
"YKLNLIHPHIFLMDWIFASG-Pra (YKLNLIHPHIFLMDWIFASG[Pra]-NH2; N-terminus assumed; SMILES C#CC[C@H](NC(=O)CNC(=O)[C@H](CO)NC(=O)[C@H](C)NC(=O)[C@H](Cc1ccccc1)NC(=O)[C@@H](NC(=O)[C@H](Cc1c[nH]c2ccccc12)NC(=O)[C@H](CC(=O)O)NC(=O)[C@H](CCSC)NC(=O)[C@H](CC(C)C)NC(=O)[C@H](Cc1ccccc1)NC(=O)[C@@H](NC(=O)[C@H](Cc1c[nH]cn1)NC(=O)[C@@H]1CCCN1C(=O)[C@H](Cc1c[nH]cn1)NC(=O)[C@@H](NC(=O)[C@H](CC(C)C)NC(=O)[C@H](CC(N)=O)NC(=O)[C@H](CC(C)C)NC(=O)[C@H](CCCCN)NC(=O)[C@@H](N)Cc1ccc(O)cc1)[C@@H](C)CC)[C@@H](C)CC)[C@@H](C)CC)C(N)=O) [SPAM-scramble, control scrambled peptide, reference compound]",Fluorescein-Atezolizumab and Fluorescein-Avelumab binding to CHO-hPD-L1 after pre-incubation,[3],not observed
